The test has as its target T1, chemokine receptor CCR5 (human, UniProt P51681 1-352).
T1 construct: whole, on cells
Put plainly: ^125I-MIP-1β binding to human monocytes, displacement by unlabeled MIP-1β.

T1 sequence (P51681 whole entry): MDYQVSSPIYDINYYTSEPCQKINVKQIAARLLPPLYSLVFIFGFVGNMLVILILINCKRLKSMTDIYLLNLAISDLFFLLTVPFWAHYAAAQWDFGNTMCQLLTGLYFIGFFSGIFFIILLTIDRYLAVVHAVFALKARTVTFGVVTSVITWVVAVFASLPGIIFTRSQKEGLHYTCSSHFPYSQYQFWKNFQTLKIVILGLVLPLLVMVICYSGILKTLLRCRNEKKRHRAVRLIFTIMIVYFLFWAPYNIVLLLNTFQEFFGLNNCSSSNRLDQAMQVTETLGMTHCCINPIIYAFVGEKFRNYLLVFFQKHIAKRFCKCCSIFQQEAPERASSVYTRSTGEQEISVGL
Description: After incubation, the cells were washed with DPBS and centrifuged through a 10% sucrose/DPBS cushion. The tips of tubes containing cell pellets were cut and the cell-associated radioactivity was determined in a gamma counter. The results were presented as counts per minute (cpm) on 2×10⁶ monocyte and were representative of at least three experiments performed.

B1: MIP-1β (ligand, human, UniProt P13236 24-92, looked up)
chain: APMGSDPPTACCFSYTARKLPRNFVVDYYETSSLCSQPAVVFQTKRSKQVCADPSESWVQEYVYDLELN
notes: also called MIP-1beta
For the molecule B1, the binding result is on record as “binds”.
